Assay results as given in paper PMC7096399, “The Na,K-ATPase acts upstream of phosphoinositide PI(4,5)P2 facilitating unconventional secretion of Fibroblast Growth Factor 2” (Communications Biology, 2020).

Molecular target: T1, ∆N25-FGF2, non-tagged form of FGF2 lacking 25 residues at the N-terminus (UniProt P09038-2 26-155)
T1 construct: FGF2, 18 kDa isoform (UniProtKB P09038-2), lacking 25 residues at the N-terminus; Untagged; also called untagged version of FGF2; source: E. coli, purified according to standard procedures
Experiment: AlphaScreen or HTRF; competition: His-FGF2-wt (62 nM) and GST-α1 variant (15 nM) with ∆N25-FGF2 competitor from 22.5 µM to 1.4 nM; apparent IC50 taken as the apparent KD
Details: both partners purified

T1 sequence (P09038 159-288): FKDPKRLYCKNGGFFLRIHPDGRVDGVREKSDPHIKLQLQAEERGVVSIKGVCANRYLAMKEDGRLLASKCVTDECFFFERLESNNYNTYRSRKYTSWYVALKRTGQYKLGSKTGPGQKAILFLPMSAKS

Kd: 1100 nM
B1: GST-α1-CD1-3, fusion of the three main loops of the cytoplasmic domain of the α1 subunit of the Na,K-ATPase (domain or fragment)
chain: not shown
